# According to the supplement of paper PMC7877785:
# ± gives the uncertainty stated by the source.
# Test: self-splicing fitness, log relative to wild type (ln ratio); higher = more splicing; Tetrahymena group I intron in knt gene, E. coli kanamycin selection, DiMSum; sequences stand for … in CUCUCU…GGAGGGAAAAGUUAUCAGGCAUGCACCUGGUAGCUAGUCUUUAAACCAAUAGAUUGCAUCGGUUUAAAAGGCAAGACCGUCAAAUUGCGGGAAAGGGGUCAACAGCCGUUCAGUACCAAGUCUCAGGGGAAACUUUGAGAUGGCCUUGCAAAGGGUAUGGUAAUAAGCUGACGGACAUGGUCCUAACCACGCAGCCAAGUCCUAAGUCAACAGAUCUUCUGUUGAUAUGGAUGCAGUUCACAGACUAAAUGUCGGUCGGGGAAGAUGUAUUCUUCUCAUAAGAUAUAGUCGGACCUCUCCUUAAUGGGAGCUAGCGGAUGAAGUGAUGCAACACUGGAGCCGCUGGGAACUAAUUUGUAUGCGAAAGUAUAUUGAUUAGUUUUGGAGUACUCGUGGUCG
# Procedure, shortened: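 Six replicate transformations of E. coli BL21(DE3) with a pET-22b(+) library were grown overnight at 37°C or 30°C. The library randomised all eight P1ex-region intron nucleotides, the intron lying in the knt kanamycin-resistance gene, and plates were LB agar with or without 25 μg/mL kanamycin plus 100 μg/mL carbenicillin, 50 μM IPTG and 0.2% rhamnose. Pooled colonies were amplicon-sequenced on an Illumina HiSeq 2500, and fitness is the DiMSum error-weighted combination of wild-type-normalised replicate fold changes, kanamycin versus none.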
Sequence,self-splicing fitness (ln) (30 °C),self-splicing fitness (ln) (37 °C)
CAACAGCAAUAUUACGUCUU,-1.48 ± 0.061,-0.62 ± 0.07
CAACAGCAAUAUUACGUUUA,-1.62 ± 0.086,-0.887 ± 0.073
CAAGAGCAAUAUUACGAAAC,-2.91 ± 0.36,–
CAAGAGCAAUAUUACGAAGA,-1.75 ± 0.35,-3.14 ± 0.43
CAAGAGCAAUAUUACGAAUA,-2.52 ± 0.34,-2.28 ± 0.36
CAAGAGCAAUAUUACGAUGG,-1.1 ± 0.091,-0.943 ± 0.077
CAAGAGCAAUAUUACGCAUG,-3.69 ± 0.44,-2.53 ± 0.29
CAAGAGCAAUAUUACGCCUA,–,-1.91 ± 0.43
CAAGAGCAAUAUUACGCGGG,-2.7 ± 0.25,-2.89 ± 0.34
CAAGAGCAAUAUUACGCGGU,-3.05 ± 0.17,-1.81 ± 0.21
CAAGAGCAAUAUUACGCUAG,–,-2.98 ± 0.35
CAAGAGCAAUAUUACGGACU,–,-2.75 ± 0.28
CAAGAGCAAUAUUACGGCCU,-3.5 ± 0.25,-1.27 ± 0.33
CAAGAGCAAUAUUACGGCGU,-3.47 ± 0.34,-1.92 ± 0.21
CAAGAGCAAUAUUACGGCUU,-3.51 ± 0.39,-2.36 ± 0.17
CAAGAGCAAUAUUACGGGAA,-2.06 ± 0.11,-3.01 ± 0.18
CAAGAGCAAUAUUACGGGUC,-3.71 ± 0.21,-2.17 ± 0.17
CAAGAGCAAUAUUACGGUAG,-1.18 ± 0.076,-1.01 ± 0.12
CAAGAGCAAUAUUACGGUCC,-2.01 ± 0.35,-1.76 ± 0.33
CAAGAGCAAUAUUACGUCCU,-3.32 ± 0.43,-2.24 ± 0.29

Sequence,self-splicing fitness (ln) (30 °C),self-splicing fitness (ln) (37 °C)
CAAGAGCAAUAUUACGUCGC,-4.54 ± 0.38,-2.38 ± 0.29
CAAGAGCAAUAUUACGUUAG,-1.97 ± 0.11,-0.995 ± 0.12
CAAUAGCAAUAUUACGACGU,-2.06 ± 0.11,-0.956 ± 0.11
CAAUAGCAAUAUUACGACUC,-3.34 ± 0.24,-0.701 ± 0.12
CAAUAGCAAUAUUACGACUG,-0.326 ± 0.063,-0.0987 ± 0.081
CAAUAGCAAUAUUACGAGGG,-3.54 ± 0.16,-0.649 ± 0.13
CAAUAGCAAUAUUACGCAGA,-3.78 ± 0.42,-2.14 ± 0.18
CAAUAGCAAUAUUACGCAGU,-3.56 ± 0.26,-2.12 ± 0.21
CAAUAGCAAUAUUACGCCAU,-3.21 ± 0.34,-2.43 ± 0.26
CAAUAGCAAUAUUACGCGCG,-0.577 ± 0.094,-0.206 ± 0.1
CAAUAGCAAUAUUACGCUAU,-2.69 ± 0.33,–
CAAUAGCAAUAUUACGCUCG,-0.561 ± 0.074,-0.204 ± 0.092
CAAUAGCAAUAUUACGCUUA,-2.06 ± 0.1,-1.74 ± 0.11
CAAUAGCAAUAUUACGGAAC,-3.98 ± 0.33,-3.27 ± 0.47
CAAUAGCAAUAUUACGGAGA,-2.75 ± 0.33,-2.08 ± 0.43
CAAUAGCAAUAUUACGGAUU,-3.94 ± 0.2,-3.55 ± 0.3
CAAUAGCAAUAUUACGGGGC,-2.73 ± 0.22,-2.45 ± 0.23
CAAUAGCAAUAUUACGGUAG,-1.34 ± 0.097,-0.488 ± 0.1
CAAUAGCAAUAUUACGUCAA,-3.04 ± 0.22,-2.01 ± 0.28
CAAUAGCAAUAUUACGUCUG,-0.324 ± 0.1,-0.58 ± 0.13
